From the supplement of paper PMC9112550, “Optimization of the antimicrobial peptide Bac7 by deep mutational scanning” (BMC Biology, 2022)

System: Escherichia coli TOP10
Test: shrunken log2 fold change of peptide-encoding DNA abundance (4.5 h post-induction vs induction); higher = less antimicrobial activity (less host growth inhibition)
Conditions: time post-induction: 4.5 h; library: site-saturation at positions 5, 18, 19, 20
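Also: peptides expressed intracellularly from a pBAD plasmid library in pooled LB shake-flask culture, induced with 0.3% L-arabinose, DNA abundance read by NGS, three biological replicates, DESeq2 with apeglm shrinkage.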

| Sequence | shrunken log2 fold change |
| --- | --- |
| RRIRFRPPRLPRPRPRPKLYPRP | -0.481 |
| RRIRSRPPRLPRPRPRPMTEPRP | 0.0273 |
| RRIRFRPPRLPRPRPRPCVNPRP | -0.121 |
| RRIRVRPPRLPRPRPRPSATPRP | 0.43 |
| RRIRVRPPRLPRPRPRPKVKPRP | 0.0531 |
| RRIRNRPPRLPRPRPRPVNDPRP | -0.15 |
| RRIRSRPPRLPRPRPRPPEQPRP | 0.306 |
| RRIRQRPPRLPRPRPRPEDDPRP | -0.14 |
| RRIRLRPPRLPRPRPRPIPVPRP | -0.0985 |
| RRIRERPPRLPRPRPRPQKSPRP | -0.202 |
| RRIRSRPPRLPRPRPRPMHKPRP | -0.112 |
| RRIRARPPRLPRPRPRPASCPRP | 0.295 |
| RRIRCRPPRLPRPRPRPAVQPRP | -0.0829 |
| RRIRIRPPRLPRPRPRPTIPPRP | -0.463 |
| RRIRHRPPRLPRPRPRPKRQPRP | -0.0409 |
| RRIRPRPPRLPRPRPRPGQGPRP | 0.201 |
| RRIRMRPPRLPRPRPRPTNWPRP | 0.474 |
| RRIRTRPPRLPRPRPRPMPHPRP | 0.182 |
| RRIRLRPPRLPRPRPRPIPCPRP | -0.00241 |
| RRIRSRPPRLPRPRPRPMEQPRP | -0.00992 |

| Sequence | shrunken log2 fold change |
| --- | --- |
| RRIRPRPPRLPRPRPRPGERPRP | 0.1 |
| RRIRWRPPRLPRPRPRPGFKPRP | -0.143 |
| RRIRDRPPRLPRPRPRPSIHPRP | -0.123 |
| RRIRLRPPRLPRPRPRPEPKPRP | 0.238 |
| RRIRGRPPRLPRPRPRPVAEPRP | 1.38 |
| RRIRGRPPRLPRPRPRPCYWPRP | 0.553 |
| RRIRERPPRLPRPRPRPSAFPRP | -0.089 |
| RRIRERPPRLPRPRPRPQNRPRP | -0.281 |
| RRIRRRPPRLPRPRPRPCNIPRP | -0.373 |
| RRIRYRPPRLPRPRPRPSWVPRP | -0.597 |
| RRIRSRPPRLPRPRPRPCFEPRP | -0.0192 |
| RRIRWRPPRLPRPRPRPFDQPRP | -0.102 |
| RRIRNRPPRLPRPRPRPPPDPRP | 0.794 |
| RRIRARPPRLPRPRPRPSPSPRP | 0.52 |
| RRIRGRPPRLPRPRPRPLPFPRP | -0.0338 |
| RRIRGRPPRLPRPRPRPHLMPRP | -0.0148 |
| RRIRFRPPRLPRPRPRPSELPRP | -0.0817 |
| RRIRVRPPRLPRPRPRPFAQPRP | 0.0825 |
| RRIRMRPPRLPRPRPRPNNMPRP | -0.309 |
| RRIRERPPRLPRPRPRPALNPRP | 0.0441 |

| Sequence | shrunken log2 fold change |
| --- | --- |
| RRIRMRPPRLPRPRPRPCYHPRP | -0.265 |
| RRIRSRPPRLPRPRPRPCRCPRP | -0.358 |
| RRIRIRPPRLPRPRPRPYFPPRP | -0.909 |
| RRIRNRPPRLPRPRPRPVCYPRP | -0.21 |
| RRIRQRPPRLPRPRPRPGDRPRP | 0.132 |
| RRIRLRPPRLPRPRPRPNSNPRP | -0.335 |
| RRIRGRPPRLPRPRPRPYFFPRP | 0.0463 |
| RRIRIRPPRLPRPRPRPWSAPRP | -0.649 |
| RRIRYRPPRLPRPRPRPLDYPRP | -1.11 |
| RRIRFRPPRLPRPRPRPKSKPRP | -0.0737 |
| RRIRYRPPRLPRPRPRPMWMPRP | -0.00149 |
| RRIRCRPPRLPRPRPRPYTVPRP | -0.207 |
| RRIRIRPPRLPRPRPRPPEWPRP | 0.0764 |
| RRIRLRPPRLPRPRPRPFLNPRP | -0.172 |
| RRIRGRPPRLPRPRPRPSHCPRP | 0.204 |
| RRIRYRPPRLPRPRPRPQNLPRP | -0.0535 |
| RRIRSRPPRLPRPRPRPVRPPRP | 0.742 |
| RRIRPRPPRLPRPRPRPVCVPRP | 0.146 |
| RRIRFRPPRLPRPRPRPLPIPRP | 0.165 |
| RRIRRRPPRLPRPRPRPRQNPRP | 0.419 |
